{"source": "the DeepSol protein solubility set", "data": [{"test": "soluble on expression in E. coli; label from the status in PepcDB or PDB records", "values": [{"sequence": "MSSEERSRQPSTVSTFDLEPNPFEQSFASSKKALSLPGTISHPSLPKELSRNNSTSTITQHSQRSTHSLNSIPEENGNSTVTDNSNHNDVKKDSPSFLPGQQRPTIISPPILTPGGSKRLPPLLLSPSILYQANSTTNPSQNSHSVSVSNSNPSAIGVSSTSGSLYPNSSSPSGTSLIRQPRNSNVTTSNSGNGFPTNDSQMPGFLLNLSKSGLTPNESNIRTGLTPGILTQSYNYPVLPSINKNTITGSKNVNKSVTVNGSIENHPHVNIMHPTVNGTPLTPGLSSLLNLPSTGVLANPVFKSTPTTNTTDGTVNNSISNSNFSPNTSTKAAVKMDNPAEFNAIEHSAHNHKENENLTTQIENNDQFNNKTRKRKRRMSSTSSTSKASRKNSISRKNSAVTTAPAQKDDVENNKISNNVTLDENEEQERKRKEFLERNRVAASKFRKRKKEYIKKIENDLQFYESEYDDLTQVIGKLCGIIPSSSSNSQFNVNVSTPSSSSPPSTSLIALLESSISRSDYSSAMSVLSNMKQLICETNFYRRGGKNPRDDMDGQEDSFNKDTNVVKSENAGYPSVNSRPIILDKKYSLNSGANISKSNTTTNNVGNSAQNIINSCYSVTNPLVINANSDTHDTNKHDVLSTLPHNN", "soluble on expression in E. coli": "soluble"}, {"sequence": "MSSEKEYVEMLDRLYSKLPEKGRKEGTQSLPNMIILNIGNTTIIRNFAEYCDRIRREDKICMKYLLKELAAPGNVDDKGELVIQGKFSSQVINTLMERFLKAYVECSTCKSLDTILKKEKKSWYIVCLACGAQTPVKPL", "soluble on expression in E. coli": "soluble"}, {"sequence": "MSSEVEPPQKKKQPWLPDYIVENCLAHISRSYYPKLSLVSSPFALSSYPKSSTKRDIASTTEEYFFHVCLQLPKSPLPTWYTLWIKPDQIEKKKKINTFTGNTRLVQIPSSYHYPFDQVFIFNLYGAMRSSKAMVRPPSYGLVSMF", "soluble on expression in E. coli": "not soluble"}, {"sequence": "MSSISSSSSNVRMDRRFDWVGPPDNLSKIRKIMLRRVDNESELERQYRLAREELNQWNSDFWAEHNQLFDRQKSDFVERKQQELGRLEHVSANELSEFYRDFLNDRHVAMMAYNKEWYRRNLQLIWPALKVNVVRFFRMARR", "soluble on expression in E. coli": "not soluble"}, {"sequence": "MSSKEIICQGEELFRLIPQRPPMVMIDRFYGIEENTSWSGLTVTTDNLFCRDGVLQETGIIEHIAQSAAARVGYIYMLRKEPVPLGFIGSVEKMKLFRLPSAGAELYTGITIVQEVFDITLITAEVKENDELLAECRMKIYLKKELEHHHHHH", "soluble on expression in E. coli": "soluble"}, {"sequence": "MSSKGSVVLAYSGGLDTSCILVWLKEQGYDVIAYLANIGQKEDFEEARKKALKLGAKKVFIEDVSREFVEEFIWPAIQSSALYEDRYLLGTSLARPCIARKQVEIAQREGAKYVSHGATGKGNDQVRFELSCYSLAPQIKVIAPWRMPEFYNRFKGRNDLMEYAKQHGIPIPVTPKNPWSMDENLMHISYEAGILENPKNQAPPGLYTKTQDPAKAPNTPDILEIEFKKGVPVKVTNVKDGTTHQTSLELFMYLNEVAGKHGVGRIDIVENRFIGMKSRGIYETPAGTILYHAHLDIEAFTMDREVRKIKQGLGLKFAELVYTGFWHSPECEFVRHCIAKSQERVEGKVQVSVLKGQVYILGRESPLSLYNEELVSMNVQGDYEPTDATGFININSLRLKEYHRLQSKVTAK", "soluble on expression in E. coli": "not soluble"}, {"sequence": "MSSNRQAYYKNNAKEQIGKEKRNEEVVSIRKDKREEAISKRRNINTQIEDDSETSTTPPGPFDANLLRLTVAAAQSSDPAEQLTAVQQARKMLSTDRNPPIDDLIGSGILPVLVQCLSSTDPNLQFEAAWALTNIASGTSEQTQAVVNAGAVPLFLQLLSCGNLNVCEQSVWALGNIIGDGPHFRDYCLELGILQPLLQFINPEIPIGFLRNVTWVIVNLCRCKDPAPSPAVVRTILPALSLLIHHQDTNILIDTVWALSYLTDGGNEHIQMVIEAQVVTHLVPLLGHVDVKVQTAALRAVGNIVTGTDEQTQLVLDSGVLRFMPGLLAHYKEKINKEAVWFVSNITAGNQQQVQDVFDAGIMPMIIHLLDRGDFPTQKEAAWAISNVTISGRPNQVEQMVKLGVLRPFCAMLSCTDSQIIQVVLDGINNILKMAGEAAEQVTSEIEECGGLDKIENLQNHENEDIYKLAFEIIDNFFSSDDETGNVEGAQSSAFGGDVPPVPDAPNGGWNFGK", "soluble on expression in E. coli": "not soluble"}, {"sequence": "MSSQQQESEASGYNTSASSEFGSLEDSHQFVSPVTRHASKRRAVENVDHLDELMKSSMVLSPEKRLRLNTSNDSNLVRNTARSPDSSMNGRPQTRRSTSSDIEISPRVRAMRSTSGSSMDLVRTVSSFCTDSISPKFFTNHGSTTRKRTENGSIYSRHRLGATFSPLVAGAKRKMATPSQSLKRQEKQSPLESRHGGLRSRGTPQRKLLLCDRLKVLN", "soluble on expression in E. coli": "not soluble"}, {"sequence": "MSSQVEHPAGGYKKLFETVEELSSPLTAHVTGRIPLWLTGSLLRCGPGLFEVGSEPFYHLFDGQALLHKFDFKEGHVTYHRRFIRTDAYVRAMTEKRIVITEFGTCAFPDPCKNIFSRFFSYFRGVEVTDNALVNIYPVGEDYYACTETNFITKVNPETLETIKQVDLCNYVSVNGATAHPHIENDGTVYNIGNCFGKNFSIAYNIVKIPPLQADKEDPISKSEIVVQFPCSDRFKPSYVHSFGLTPNYIVFVETPVKINLFKFLSSWSLWGANYMDCFESNETMGVWLHIADKKRKKYINNKYRTSPFNLFHHINTYEDHEFLIVDLCCWKGFEFVYNYSYLANLRENWEEVKKNARKAPQPEVRRYVLPLNIDKADTGKNLVTLPNTTATAILCSDETIWLEPEVLFSGPRQAFEFPQINYQKYGGKPYTYAYGLGLNHFVPDRLCKLNVKTKETWVWQEPDSYPSEPIFVSHPDALEEDDGVVLSVVVSPGAGQKPAYLLILNAKDLSEVARAEVEINIPVTFHGLFKKS", "soluble on expression in E. coli": "soluble"}, {"sequence": "MSSRKELANAIRALSMDAVQKAKSGHPGAPMGMADIAEVLWRDFLKHNPQNPSWADRDRFVLSNGHGSMLIYSLLHLTGYDLPMEELKNFRQLHSKTPGHPEVGYTAGVETTTGPLGQGIANAVGMAIAEKTLAAQFNRPGHDIVDHYTYAFMGDGCMMEGISHEVCSLAGTLKLGKLIAFYDDNGISIDGHVEGWFTDDTAMRFEAYGWHVIRDIDGHDAASIKRAVEEARAVTDKPSLLMCKTIIGFGSPNKAGTHDSHGAPLGDAEIALTREQLGWKYAPFEIPSEIYAQWDAKEAGQAKESAWNEKFAAYAKAYPQEAAEFTRRMKGEMPSDFDAKAKEFIAKLQANPAKIASRKASQNAIEAFGPLLPEFLGGSADLAPSNLTLWSGSKAINEDAAGNYIHYGVREFGMTAIANGISLHGGFLPYTSTFLMFVEYARNAVRMAALMKQRQVMVYTHDSIGLGEDGPTHQPVEQVASLRVTPNMSTWRPCDQVESAVAWKYGVERQDGPTALILSRQNLAQQERTEEQLANIARGGYVLKDCAGQPELIFIATGSEVELAVAAYEKLTAEGVKARVVSMPSTDAFDKQDAAYRESVLPKAVTARVAVEAGIADYWYKYVGLNGAIVGMTTFGESAPAELLFEEFGFTVDNVVAKAKELLHHHHHH", "soluble on expression in E. coli": "soluble"}, {"sequence": "MSSSGVYTCNSCVLTFDSSDEQRAHMKSDWHRYNLKRRVAQLPPISFETFDSKVSAAAASTSKSAEKEKPVTKKELKRREKQALLEKKKKLLEIARANMLENMQKSQEGNTPDLSKLSLQENEENKEKEEPKKEEPEQLTEEEMAERVMQENVRNRVDIPLEQCLFCEHNKHFKDVEENLEHMFRTHGFYIPEQKYLVDKIGLVKYMSEKIGLGNICIVCNYQGRTLTAVRQHMLAKRHCKIPYESEDERLEISEFYDFTSSYANFNSNTTPDNEDDWEDVGSDEAGSDDEDLPQEYLYNDGIELHLPTGIKVGHRSLQRYYKQDLKPEVILTEGQGTLVAAETRSFLPAFDKKGVQTQQRVWQTERFDKKRLDKRSAKFVNNQPHYRDQLLQ", "soluble on expression in E. coli": "soluble"}, {"sequence": "MSSSTKTLSQTYGPRPQSFSLDEAGERYYIGSEIGAYLRLHRGTLYKKYPLLWRKVATSDDKDKLKQIAMSNAFLHTNIMLLRAHEVDELLDGSEEKYRAAGAAPSTPRTEGASRTVAKTPATGWAGQQVTSGSHHLESVPCSCPIAHSRGRMKHRELVYSAEDLEMSKRVMKNAEEGEDLVPIRLDMELDGIKLRDTFTFNKNEKMITPEMIAEIMCEDLDLPLAVFQPAITAAINQQLEASTEAPPLDVNICDQRAVLKLNINVGNQSLVDQFEWDMSDPNNSPEEFSRNICKELGLGGEFMSGIAYSIRGQLQWNQRTYAFSESPLATVDCPFRTSSEVESWGPFLETLTDAEIEKKMRDQDRNTRRMRRLVGGGFNY", "soluble on expression in E. coli": "not soluble"}, {"sequence": "MSSTQEASVTDLPVKRPREAEEDNNGGAMETENGGGEIKEPSCMSSIIPGWFSEISPMWPGEAHSLKVEKILFQGKSDYQDVIVFQSATYGKVLVLDGVIQLTERDECAYQEMITHLPLCSISNPKKVLVIGGGDGGVLREVARHSSVEQIDICEIDKMVVDVAKQYFPNVAVGYEDPRVNLIIGDGVAFLKNAAEGTYDAVIVDSSDPIGPAKELFEKPFFESVNRALRPGGVVCTQAESLWLHMDIIEDIVSNCRDIFKGSVNYAWTSVPTYPSGVIGFMLCSSEGPQVDFKKPVSLIDTDESSIKSHCPLKYYNAEIHSAAFCLPSFAKKVIDSKAN", "soluble on expression in E. coli": "soluble"}, {"sequence": "MSSVMSHTGGKEGTYPGTRASATMIGDDETNWGTKSLAILDMPFTAVMDTLLLPWDVFRKDSSVRSRVEKSEANAQATNAVIPPARMPDNLEHHHHHH", "soluble on expression in E. coli": "not soluble"}, {"sequence": "MSSYFPVYLDLKDKEVLVIGGGRVATRKVKTLLEFTKNITIVSPKVTEELKNLIKEKKIKWIDRKFKPSDLKDKFLVVVAVDDIKLQKRVFNLCEKRGILCNSVDSPKYCNFIFPSIIKRGDLVISISTSGKVPALSRALREKIEECLPENIEEIMKELEIIRKSEEKGEERQKKLLRLARELLKNFLEHHHHHH", "soluble on expression in E. coli": "soluble"}, {"sequence": "MSTAFAIPLFQFSPKPLHWKKRIAMWKAEIMDIKTTETGSRGEYSATIDGHKAQMTYSRTSPSLIIIDHTGVPDALRGKGVGQALAAHAIDEARKGGWKIIPLCPFFKAQTLRHADWADVIQGLEHHHHHH", "soluble on expression in E. coli": "soluble"}, {"sequence": "MSTASVLDDIDYDSSFEMVEEEKFEKIENTDNSENFQYVSTKGNTVKEVNINSNEKKKKEAPIQILTAMIGKWKLASSENLQEYFTLEKFPEITQMAWEHGITCYKMNGNQLHVHTDLLGKSLIPTIFEFDKPIARDDNAVSTHAEGNMMSTICKRIADGSIVWKVERLIKNGNLVVFNSRGNFRCKRVYKRVN", "soluble on expression in E. coli": "not soluble"}, {"sequence": "MSTCKQFLSTKKKSKDSYEFIENLGEGSFAEVVLVAKVGTPNKMFAMKEISIVGKDECFMESIKRECSIQKRLSKSRHLNMIHLFEIRTNPENYQLILSYADGGDLFEKINQHGGLGSDEAHRYFKQLIDGLRFIHEEGVTHRDIKPENLLLTKSGILKIADFGFATMHRFNGAEQMLNAYCGSPPYIAPEVLTGIDYRGPAVDIWSAGVVLIAMIAGAVPWEQADHFDIFQSRYCSFRRNGRKGAWSRMSQQVISLLRKILLQAELRATISMIEEDPWFIYGEEVDAENKENGSQAQYRQESQTSSKPILNFENLLKDLNVSI", "soluble on expression in E. coli": "not soluble"}, {"sequence": "MSTEYGCQVTNKFGLPSDDDDEYDDPRELIQKVSQIAAKKKEEKSVKPAQPVKPAAAPVAATKTDGAAGRGRGGRGRGRGGAGRPRDGERVSNENGDRPQGENRRGGPRRGGERGAARPAGRGGRGGFTRENREGEEPKQEVSFEDGQDTRAPRRRGGFTLGGGPSGGRGGGRGGRGRQFDRQSGSDRTGVRSFDKKDGHGKGNWGDQKDELAGETENIAPEGAESTEPEVPREKTAEELAYEAELAVLAKQKTLKEFKAAAKADAPKFNTRKAGEGAADTFGKLVPIKKEVIPDREEDEVVVIHKAPRKQVLDISITFRNDRPERERNDRSERPQRGGPRGGGRGGGRGGQRQGGHGGRNNTPFNASDDAFPALGAK", "soluble on expression in E. coli": "not soluble"}]}]}
